B1: Gal4^DBD-Cdc53^ΔN (other, not shown: small tags and cut ends)
chain: MALNKVLITDHIEKLENEFVVLLDARDIEKITSLYALIRRDFTLIPRMASVFENYVKKTGENEISSLLAMHKHNIMKNENANPKKLALMTAHSLSPKDYIKKLLEVHDIFSKIFNESFPDDIPLAKALDNACGAFININEFALPAGSPKSATSKTSEMLAKYSDILLKKATKPEVASDMSDEDIITIFKYLTDKDAFETHYRRLFAKRLIHGTSTSAEDEENIIQRLQAANSMEYTGKITKMFQDIRLSKILEDDFAVALKNEPDYSKAKYPDLQPFVLAENMWPFSYQEVEFKLPKELVPSHEKLKESYSQKHNGRILKWLWPLCRGELKADIGKPGRMPFNFTVTLFQMAILLLYNDADVLTLENIQEGTSLTIQHIAAAMVPFIKFKLIQQVPPGLDALVKPETQFKLSRPYKALKTNINFASGVKNDILQSLSGGGHDNHGNKLGNKRLTEDERIEKELNTERQIFLEACIVRIMKAKRNLPHTTLVNECIAQSHQRFNAKVSMVKRAIDSLIQKGYLQRGDDGESYAYLA
notes: Made by NcoI digestion and religation; also called pMT954; Cdc53 lacking the N-terminal 280 residues
B2: Cdc53^Δ9-280 (MYC-tagged) (other, not shown: small tags and cut ends)
chain: MSETLPRSMALNKVLITDHIEKLENEFVVLLDARDIEKITSLYALIRRDFTLIPRMASVFENYVKKTGENEISSLLAMHKHNIMKNENANPKKLALMTAHSLSPKDYIKKLLEVHDIFSKIFNESFPDDIPLAKALDNACGAFININEFALPAGSPKSATSKTSEMLAKYSDILLKKATKPEVASDMSDEDIITIFKYLTDKDAFETHYRRLFAKRLIHGTSTSAEDEENIIQRLQAANSMEYTGKITKMFQDIRLSKILEDDFAVALKNEPDYSKAKYPDLQPFVLAENMWPFSYQEVEFKLPKELVPSHEKLKESYSQKHNGRILKWLWPLCRGELKADIGKPGRMPFNFTVTLFQMAILLLYNDADVLTLENIQEGTSLTIQHIAAAMVPFIKFKLIQQVPPGLDALVKPETQFKLSRPYKALKTNINFASGVKNDILQSLSGGGHDNHGNKLGNKRLTEDERIEKELNTERQIFLEACIVRIMKAKRNLPHTTLVNECIAQSHQRFNAKVSMVKRAIDSLIQKGYLQRGDDGESYAYLA
notes: Deletion built with natural and engineered restriction sites; also called CDC53^MΔ9-280; pMT1850

Key:
Gal4^AD-Cdc4 isolates = target: T1, Gal4^AD-Cdc4 isolates (budding yeast, UniProt P07834 1-779, limits assumed); assay: yeast two-hybrid
T1 construct: Library clones; all contained the F-box; also called Cdc4 two hybrid isolates; full length Cdc4 in the two hybrid system
T1 sequence: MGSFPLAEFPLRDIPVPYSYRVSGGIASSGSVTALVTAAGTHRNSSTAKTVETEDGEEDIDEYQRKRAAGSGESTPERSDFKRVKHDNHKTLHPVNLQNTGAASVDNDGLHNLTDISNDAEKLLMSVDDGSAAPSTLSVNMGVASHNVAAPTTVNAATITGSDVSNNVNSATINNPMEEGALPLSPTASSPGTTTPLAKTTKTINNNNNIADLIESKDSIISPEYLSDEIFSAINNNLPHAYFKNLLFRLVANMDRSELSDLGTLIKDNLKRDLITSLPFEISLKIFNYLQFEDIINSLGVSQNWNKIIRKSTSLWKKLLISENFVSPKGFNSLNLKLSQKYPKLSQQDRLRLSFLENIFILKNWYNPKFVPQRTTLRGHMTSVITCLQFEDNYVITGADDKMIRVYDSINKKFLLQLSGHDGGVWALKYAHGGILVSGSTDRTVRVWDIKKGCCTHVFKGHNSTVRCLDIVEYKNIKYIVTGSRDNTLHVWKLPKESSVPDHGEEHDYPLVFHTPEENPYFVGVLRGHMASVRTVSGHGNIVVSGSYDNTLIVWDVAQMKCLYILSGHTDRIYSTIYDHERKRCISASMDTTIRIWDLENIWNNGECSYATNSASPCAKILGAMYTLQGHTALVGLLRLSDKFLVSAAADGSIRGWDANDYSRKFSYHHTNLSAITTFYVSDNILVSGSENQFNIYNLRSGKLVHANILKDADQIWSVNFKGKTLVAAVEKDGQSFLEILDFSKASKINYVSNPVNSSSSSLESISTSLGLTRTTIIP

Gal4^AD-Met30 isolates = target: T2, Gal4^AD-Met30 isolates (yeast, UniProt P39014 1-640, limits assumed); assay: yeast two-hybrid
T2 construct: Library clones; all contained the F-box; also called Met30 two hybrid isolates; full length Met30 in the two hybrid system
T2 sequence: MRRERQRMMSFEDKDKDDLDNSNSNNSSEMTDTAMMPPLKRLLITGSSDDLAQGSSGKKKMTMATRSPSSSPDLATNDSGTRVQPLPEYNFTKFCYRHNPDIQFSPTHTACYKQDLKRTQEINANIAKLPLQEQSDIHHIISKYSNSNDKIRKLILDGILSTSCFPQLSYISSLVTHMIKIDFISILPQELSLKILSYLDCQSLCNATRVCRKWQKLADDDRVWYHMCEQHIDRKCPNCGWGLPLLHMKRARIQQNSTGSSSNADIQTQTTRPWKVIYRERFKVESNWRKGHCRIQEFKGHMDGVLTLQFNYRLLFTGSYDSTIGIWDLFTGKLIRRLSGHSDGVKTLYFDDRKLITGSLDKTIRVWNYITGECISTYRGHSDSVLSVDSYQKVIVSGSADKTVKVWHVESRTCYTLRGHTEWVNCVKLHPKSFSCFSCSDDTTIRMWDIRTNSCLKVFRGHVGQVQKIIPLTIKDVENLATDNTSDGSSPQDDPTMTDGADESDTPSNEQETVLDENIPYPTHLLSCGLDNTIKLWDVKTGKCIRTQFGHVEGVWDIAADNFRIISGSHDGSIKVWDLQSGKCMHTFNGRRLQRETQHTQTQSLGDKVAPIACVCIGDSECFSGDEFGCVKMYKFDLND

Cdc4 = target: T3, Cdc4 (budding yeast, UniProt P07834 1-779); assay: anti-MYC immunoprecipitation from yeast lysate, immunoblot
T3 construct: Endogenous protein in yeast lysates, detected with anti-Cdc4 antibodies; also called endogenous Cdc4
T3 sequence: T1 sequence

Met30 = target: T4, Met30 (yeast, UniProt P39014 1-640); assay: as above
T4 construct: Endogenous protein in yeast lysates, detected with anti-Met30 antibodies; also called endogenous Met30
T4 sequence: T2 sequence

Grr1 = target: T5, Grr1 (budding yeast, UniProt P24814 1-1151); assay: as above
T5 construct: Endogenous protein in yeast lysates, detected with anti-Grr1 antibodies; also called endogenous Grr1
T5 sequence: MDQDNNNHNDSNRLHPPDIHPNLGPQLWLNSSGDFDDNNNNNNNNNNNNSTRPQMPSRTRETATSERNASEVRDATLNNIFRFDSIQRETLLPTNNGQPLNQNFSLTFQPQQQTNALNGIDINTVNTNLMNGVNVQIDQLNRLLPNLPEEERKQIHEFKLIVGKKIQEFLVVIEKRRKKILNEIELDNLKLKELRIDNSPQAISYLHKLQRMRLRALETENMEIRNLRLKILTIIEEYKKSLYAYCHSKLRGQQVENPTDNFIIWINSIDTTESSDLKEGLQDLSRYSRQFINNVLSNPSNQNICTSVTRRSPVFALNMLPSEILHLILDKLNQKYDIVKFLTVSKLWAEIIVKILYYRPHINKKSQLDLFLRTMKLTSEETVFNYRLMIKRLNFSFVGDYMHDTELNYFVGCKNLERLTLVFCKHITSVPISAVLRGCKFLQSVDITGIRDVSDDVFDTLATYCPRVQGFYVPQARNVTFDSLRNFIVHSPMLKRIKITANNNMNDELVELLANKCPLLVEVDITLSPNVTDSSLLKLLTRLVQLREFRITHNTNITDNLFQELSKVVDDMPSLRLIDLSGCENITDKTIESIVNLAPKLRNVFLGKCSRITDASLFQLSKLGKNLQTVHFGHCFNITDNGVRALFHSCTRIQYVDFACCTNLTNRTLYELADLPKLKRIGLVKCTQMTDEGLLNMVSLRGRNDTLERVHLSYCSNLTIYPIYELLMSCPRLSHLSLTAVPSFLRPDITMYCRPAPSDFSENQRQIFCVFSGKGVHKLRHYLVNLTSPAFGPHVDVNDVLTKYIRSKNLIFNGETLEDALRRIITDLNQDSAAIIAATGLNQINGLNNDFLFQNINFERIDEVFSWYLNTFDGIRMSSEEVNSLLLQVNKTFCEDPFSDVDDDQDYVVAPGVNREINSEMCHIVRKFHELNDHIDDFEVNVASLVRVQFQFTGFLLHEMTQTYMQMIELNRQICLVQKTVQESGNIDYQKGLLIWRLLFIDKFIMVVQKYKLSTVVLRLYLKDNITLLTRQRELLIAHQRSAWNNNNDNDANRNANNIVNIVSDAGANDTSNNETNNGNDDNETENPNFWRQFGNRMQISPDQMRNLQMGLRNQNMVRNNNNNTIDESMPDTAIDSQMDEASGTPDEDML

| Binder | binding result (Gal4^AD-Cdc4 isolates) | binding result (Gal4^AD-Met30 isolates) | binding result (Cdc4) | binding result (Met30) | binding result (Grr1) |
| --- | --- | --- | --- | --- | --- |
| B1 | no binding | no binding | – | – | – |
| B2 | – | – | no binding | no binding | no binding |
